Test results as given in patent US20020123614A1 (published 2002).

How the values were obtained:
[1] = target: T1, recombinant ICAM-2 Fc chimera (UniProt P13598 25-223, limits assumed); experiment: BIAcore, 1 mM MgCl2
T1 construct: amine-coupled to the BIAcore chip; not shown: Fc part, not described
T1 sequence (looked up): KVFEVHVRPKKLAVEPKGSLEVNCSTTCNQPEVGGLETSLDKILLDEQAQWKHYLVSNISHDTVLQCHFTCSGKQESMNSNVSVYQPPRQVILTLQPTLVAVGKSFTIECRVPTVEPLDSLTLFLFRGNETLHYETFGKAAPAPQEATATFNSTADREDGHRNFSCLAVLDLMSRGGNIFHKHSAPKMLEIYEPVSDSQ
Method: (§1) The recombinant proteins were purified from inclusion bodies by solubilization of inclusion bodies in 6M guanidine HCl and were refolded by dilution in the presence of 0.1 mM Cu²⁺/phenanthrolin to enhance formation of disulfide bonds. Protein was concentrated by ammonium sulfate precipitation, dialyzed, and purified over a monoQ ion-exchange column. […] The recombinant proteins were then purified by gel filtration and concentrated by Centriprep. For BIAcore™ analysis, recombinant ICAM-1, ICAM-2 and ICAM-3 Fc chimeras were immobilized on the BIAcore™ sensor chip by an amine-coupling method. Recombinant αL I-domains were flowed in, and BIAcore™ assays were performed with Tris-buffered saline supplemented with 1 mM MgCl₂ or 2 mM EDTA, at a flow rate of 10 μl/minute at 25° C.

[2] = target: T2, recombinant ICAM-3 Fc chimera (UniProt P32942 30-485, limits assumed); experiment: BIAcore, 1 mM MgCl2
T2 construct: amine-coupled to the BIAcore chip; not shown: Fc part, not described
T2 sequence (looked up): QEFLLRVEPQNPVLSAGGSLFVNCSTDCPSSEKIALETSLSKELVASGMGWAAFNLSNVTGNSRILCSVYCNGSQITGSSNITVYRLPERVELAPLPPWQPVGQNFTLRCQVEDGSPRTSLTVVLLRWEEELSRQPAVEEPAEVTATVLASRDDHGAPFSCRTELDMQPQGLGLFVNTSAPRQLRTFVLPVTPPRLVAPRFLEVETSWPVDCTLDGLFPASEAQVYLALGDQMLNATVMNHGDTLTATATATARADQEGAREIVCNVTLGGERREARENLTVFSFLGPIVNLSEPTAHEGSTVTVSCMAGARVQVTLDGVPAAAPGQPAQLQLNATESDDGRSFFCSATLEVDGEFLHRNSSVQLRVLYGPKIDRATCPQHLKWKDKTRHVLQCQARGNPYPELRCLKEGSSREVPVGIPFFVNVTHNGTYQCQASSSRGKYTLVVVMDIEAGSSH
Method: as §1

[3] = target: T3, recombinant ICAM-1 Fc chimera (UniProt P05362 28-480, limits assumed); experiment: BIAcore; Scatchard plots at steady state
T3 construct: amine-coupled to the BIAcore chip; not shown: Fc part, not described
T3 sequence (P05362 28-480 limits assumed, change not shown): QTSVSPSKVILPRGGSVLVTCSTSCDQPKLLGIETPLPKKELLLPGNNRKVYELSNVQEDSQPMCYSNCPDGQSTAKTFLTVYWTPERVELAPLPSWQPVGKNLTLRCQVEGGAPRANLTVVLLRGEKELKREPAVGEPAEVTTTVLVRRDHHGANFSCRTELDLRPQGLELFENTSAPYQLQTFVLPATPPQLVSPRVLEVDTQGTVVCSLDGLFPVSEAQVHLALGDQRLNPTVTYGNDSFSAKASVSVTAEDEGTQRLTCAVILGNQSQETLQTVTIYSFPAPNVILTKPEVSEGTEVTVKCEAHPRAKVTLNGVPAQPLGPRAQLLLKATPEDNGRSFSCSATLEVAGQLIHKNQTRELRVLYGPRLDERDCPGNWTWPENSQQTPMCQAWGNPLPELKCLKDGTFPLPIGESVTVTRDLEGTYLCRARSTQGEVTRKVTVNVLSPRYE
Method: (§2) Recombinant soluble αL I-domains were expressed in E. coli, refolded and purified. Kinetics of binding of the I-domains to ICAM-1 was measured by BIAcore ™ instruments. Kinetics was analyzed BIAevaluation ™ software. KD was calculated by Scatchard plots using data at steady states. Koff was obtained by curve fining of the dissociation phase using 1:1 binding model. Kon was calculated by Koff/KD.

[4] = target: T3, recombinant ICAM-1 Fc chimera; experiment: BIAcore; dissociation phase, 1:1 model
Method: as §2

[5] = target: T3, recombinant ICAM-1 Fc chimera; experiment: BIAcore; Kon calculated by Koff/KD
Method: as §2

[6] = target: ICAM-1 (BIAcore, another study; construct not stated) (UniProt P05362 28-480, limits assumed); experiment: BIAcore, another study
ICAM-1 (BIAcore, another study; construct not stated), sequence (P05362 28-480 limits assumed): as the sequence (P05362 28-480 limits assumed, change not shown) above

[7] = target: T3, recombinant ICAM-1 Fc chimera; experiment: BIAcore, ICAM Fc chimera immobilized, 1:1 model
Method: as §1

[8] = target: T1, recombinant ICAM-2 Fc chimera; experiment: BIAcore, ICAM Fc chimera immobilized, 1:1 model
Method: as §1

[9] = target: T2, recombinant ICAM-3 Fc chimera; experiment: BIAcore, ICAM Fc chimera immobilized, 1:1 model
Method: as §1

murine ICAM-1 = target: T4, murine ICAM-1 (murine, UniProt P13597 28-485, limits assumed); experiment: BIAcore (not described further)
T4 construct: on EL-4 cells in the aggregation assay
T4 sequence (P13597 28-485 limits assumed): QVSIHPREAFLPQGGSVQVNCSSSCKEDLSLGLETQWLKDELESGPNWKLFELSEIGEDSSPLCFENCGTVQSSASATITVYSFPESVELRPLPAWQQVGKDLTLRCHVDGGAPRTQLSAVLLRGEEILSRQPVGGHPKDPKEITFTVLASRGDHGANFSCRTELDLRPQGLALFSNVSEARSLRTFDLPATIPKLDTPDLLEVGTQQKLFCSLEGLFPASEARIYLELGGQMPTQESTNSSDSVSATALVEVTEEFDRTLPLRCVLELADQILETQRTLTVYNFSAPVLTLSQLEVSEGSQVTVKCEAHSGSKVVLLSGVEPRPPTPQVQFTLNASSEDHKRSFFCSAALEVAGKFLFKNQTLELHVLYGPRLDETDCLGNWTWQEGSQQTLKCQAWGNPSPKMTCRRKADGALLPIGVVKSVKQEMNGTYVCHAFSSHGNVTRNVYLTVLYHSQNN

B1: recombinant soluble wild-type αL I-domain (G128-Y307), E. coli (receptor)
chain: GNVDLVFLFDGSMSLQPDEFQKILDFMKDVMKKLSNTSYQFAAVQFSTSYKTEFDFSDYVKRKDPDALLKHVKHMLLLTNTFGAINYVATEVFREELGARPDATKVLIIITDGEATDSGNIDAAKDIIRYIIGIGKHFQTKESQETLHKFASKPASEFVKILDTFEKLKDLFTELQKKIY
notes: numbers as printed, probably mature αL numbering; also called soluble wild-type I domain; wild-type I-domain
Question: What does the source list for B1?
Answer: binding result [1]: no binding; binding result [2]: no binding

B2: recombinant soluble αL I-domain L161C/F299C (locked open, intermediate affinity) (receptor)
chain: GNVDLVFLFDGSMSLQPDEFQKILDFMKDVMKKCSNTSYQFAAVQFSTSYKTEFDFSDYVKRKDPDALLKHVKHMLLLTNTFGAINYVATEVFREELGARPDATKVLIIITDGEATDSGNIDAAKDIIRYIIGIGKHFQTKESQETLHKFASKPASEFVKILDTFEKLKDLCTELQKKIY
Question: Which results are given for B2?
Answer: Kd [3]: 3.76 µM; koff [4]: 0.513 s⁻¹; kon [5]: 136000 M⁻¹ s⁻¹

B3: recombinant soluble αL I-domain E284C/E301C (locked open) (receptor)
chain: GNVDLVFLFDGSMSLQPDEFQKILDFMKDVMKKLSNTSYQFAAVQFSTSYKTEFDFSDYVKRKDPDALLKHVKHMLLLTNTFGAINYVATEVFREELGARPDATKVLIIITDGEATDSGNIDAAKDIIRYIIGIGKHFQTKESQETLHKFASKPASCFVKILDTFEKLKDLFTCLQKKIY
Question: Which Kd [3] does the source give for B3 here?
Answer: 0.36 µM

Question: And the koff [4]?
Answer: 0.0459 s⁻¹

Question: And the kon [5]?
Answer: 128000 M⁻¹ s⁻¹

B4: recombinant soluble αL I-domain L161C/T300C (locked open, intermediate affinity) (receptor)
chain: GNVDLVFLFDGSMSLQPDEFQKILDFMKDVMKKCSNTSYQFAAVQFSTSYKTEFDFSDYVKRKDPDALLKHVKHMLLLTNTFGAINYVATEVFREELGARPDATKVLIIITDGEATDSGNIDAAKDIIRYIIGIGKHFQTKESQETLHKFASKPASEFVKILDTFEKLKDLFCELQKKIY
Question: How did the Kd [3] turn out when B4 was run?
Answer: 4.8 µM

Question: What about the koff [4] of the same binder?
Answer: 0.65 s⁻¹

Question: And the kon [5]?
Answer: 135000 M⁻¹ s⁻¹

B5: recombinant soluble αL I-domain stabilized in the open conformation (K287C/K294C), G128-Y307, E. coli (receptor)
chain: GNVDLVFLFDGSMSLQPDEFQKILDFMKDVMKKLSNTSYQFAAVQFSTSYKTEFDFSDYVKRKDPDALLKHVKHMLLLTNTFGAINYVATEVFREELGARPDATKVLIIITDGEATDSGNIDAAKDIIRYIIGIGKHFQTKESQETLHKFASKPASEFVCILDTFECLKDLFTELQKKIY
modifications: introduced disulfide C287-C294
notes: numbers as printed, probably mature αL numbering; also called open I-domain; soluble open I-domain
Question: With B5 as the binder, how does the Kd [3] read?
Answer: 0.18 µM

Question: And the Kd [6]?
Answer: 0.2 µM

Question: And the Kd [7]?
Answer: 0.18 µM

Question: What about the koff [7] of the same binder?
Answer: 0.023 s⁻¹

Question: And the kon [7]?
Answer: 128000 M⁻¹ s⁻¹

Question: And the Kd [8]?
Answer: 0.513 µM

Question: What about the koff [8] of the same binder?
Answer: 0.0118 s⁻¹

Question: What about the kon [8] of the same binder?
Answer: 23000 M⁻¹ s⁻¹

Question: And the Kd [9]?
Answer: 3.94 µM

Question: What about the koff [9] of the same binder?
Answer: 0.0749 s⁻¹

Question: And the kon [9]?
Answer: 19000 M⁻¹ s⁻¹

Question: And the koff [4]?
Answer: 0.023 s⁻¹

Question: And the kon [5]?
Answer: 128000 M⁻¹ s⁻¹

Question: Does B5 bind (murine ICAM-1)?
Answer: binds

B6: recombinant soluble αL I-domain K160C/F299C (locked open, intermediate affinity) (receptor)
chain: GNVDLVFLFDGSMSLQPDEFQKILDFMKDVMKCLSNTSYQFAAVQFSTSYKTEFDFSDYVKRKDPDALLKHVKHMLLLTNTFGAINYVATEVFREELGARPDATKVLIIITDGEATDSGNIDAAKDIIRYIIGIGKHFQTKESQETLHKFASKPASEFVKILDTFEKLKDLCTELQKKIY
Question: Which results are given for B6?
Answer: Kd [3]: 4.39 µM; koff [4]: 0.67 s⁻¹; kon [5]: 153000 M⁻¹ s⁻¹

B7: recombinant soluble αL I-domain L289C/K294C (locked closed) (receptor)
chain: GNVDLVFLFDGSMSLQPDEFQKILDFMKDVMKKLSNTSYQFAAVQFSTSYKTEFDFSDYVKRKDPDALLKHVKHMLLLTNTFGAINYVATEVFREELGARPDATKVLIIITDGEATDSGNIDAAKDIIRYIIGIGKHFQTKESQETLHKFASKPASEFVKICDTFECLKDLFTELQKKIY
Question: For B7, which Kd [3] is on record?
Answer: 1760 µM

Question: What about the koff [4] of the same binder?
Answer: 2.84 s⁻¹

Question: And the kon [5]?
Answer: 2110 M⁻¹ s⁻¹
